Data: the DeepSol protein solubility set

assay: soluble on expression in E. coli; label from the status in PepcDB or PDB records

Row | Sequence | soluble on expression in E. coli
1 | MFMEFSAGLMPLETALTQMLSRITPLTAVETLPLVNCFGRILATDIVSPLDVPGFDNSAMDGYAVRVADLSADKPLPVAGKAFAGQPYQGEWPAGTCIRIMTGAPVPAGCEAVVMQEQTEQTDDGVRFTADVRCGQNIRRRGEDIRQDAVVFPAGTRLTTAELPVLASLGIADAQVVRKVRVALFSTGDELQLPGQPLEAGQIYDTNRLTIHLMLQQLGCEVINLGIIPDDPGKLRAAFIDADSQADVVISSGGVSVGEADYTKTILEELGEIAFWKLAIKPGKPFAFGKLSNSWFCGLPGNPVSAALTFYQLVQPLLAKLGGNTASAVPPRQRVRTASRLKKTPGRLDFQRGILQRSANGELEVTTTGHQGSHIFSSFSLGNCFIVLERERGNVEPGEWVEVEPFNALFGGL | not soluble
2 | MFNALLLTQQDKITHATVTQINDDQLPAGNVTVAVNYSSLNYKDGLAITGKGKIIREFPMVPGIDFAGTVLESADARYQVGDAVVLTGWGVGENHWGGMAQKARLNADWLVKLPQGLTSQQAMMIGTAGFTAMLCVQALIDGGIKPEDGEILVTGASGGVGSVAVTLLAQLGYKVVAVTGRVAQNGPLLEQLGASRVIDRQEFSEASRPLEKQLWVGAVDTVGSKVLAKVLAQMHYNGVVAACGLAGGFDLPTTVMPFILRNVRLQGVDSVSCPVEKRLAAWKKLAELLPASYYAQACHEISLSQVPEYAEAITNGQVTGRVVVKL | not soluble
3 | MFNLKREHFRDDYLYRFYQYGDTHSKIPSNLYKVLARKLDMISASENINDLRSPPANHLELLEPKENKIYSIRVNKQYCLIFKYENNEVNNLYLDPHSYNL | not soluble
4 | MFNQTQTVTYPATFLGAKKFKGEIDGSNIDTCSVLVATPLPAQSGNAVGFTAAQMKFGDSKNFSKLENLKYPCEVMVTVEMTSTGKGMVPSLIDFQVAEKPKG | not soluble
5 | MFPRALAIGTPAQHKATEAPVTSTSASGLARFNTLEETAALAELHEACAATAWARHLLAARPFATAEDLYAASDAAMAELSAEDLAEAMAGHPPIGRPKPGDATSSREQAGMAGAAEELKAEMLELNLAYQDKFGHVFLICATGRTGEQMRDAALERIGNSPEQEREIVRTELGKINRIRLTRLVEQDARPAAALEHHHHHH | soluble
6 | MFQLLAVCPMGLEAVVAREIQELGYETNVENGRIFFEGDASAIVKANLWLRTADRIKIVVGRFNATTFDELFEQTKALPWESIIDKEGNFPVQGRSVKSTLHSVPDCQAITKKAIVERLRRAYNEKGWLNESGAKYPVEVAILKDNVLLTIDTSGSGLNRRGYRLAQGEAPIKETLAASLIRLANWKGDTPLIDPFCGSGTIAIEACLIAQNIAPGFNREFVSEQWNIMPANIYDDYRDEADKMADYDKEIEVYASDIDPEMVEIAKRNAEEVGLSDIIKFSVKDVNTLTIDTEEPVALIGNPPYGERIGDREEVEEMYRYIGKLMKQHPFLSTYILTSNKEFEYLVNRKATKRRKLFNGYIECTYYQYWGKKTERKTIEN | not soluble
7 | MFQVKVRGCMTVYPKVQCISYKIDVDKPTVCELTLCLAPNSDVPADRFSNDLFLVVYNNEQKLVGLTRHVLEERKYSTGMMTVNEGDEVMIVGMGTTTNRKRSTTERVPLIEETNKLSKRFK | not soluble
8 | MFQVPDSEGGRAGSRAMKPPGGESSNLFGSPEEATPSSRPNRMASNIFGPTEEPQNIPKRTNPPGGKGSGIFDESTPVQTRQHLNPPGGKTSDIFGSPVTATSRLAHPNKPKDHVFLCEGEEPKSDLK | not soluble
9 | MFRAAAPGQLRRAASLLRFQSTLVIAEHANDSLAPITLNTITAATRLGGEVSCLVAGTKCDKVAQDLCKVAGIAKVLVAQHDVYKGLLPEELTPLILATQKQFNYTHICAGASAFGKNLLPRVAAKLEVAPISDIIAIKSPDTFVRTIYAGNALCTVKCDEKVKVFSVRGTSFDAAATSGGSASSEKASSTSPVEISEWLDQKLTKSDRPELTGAKVVVSGGRGLKSGENFKLLYDLADQLHAAVGASRAAVDAGFVPNDMQVGQTGKIVAPELYIAVGISGAIQHLAGMKDSKTIVAINKDPEAPIFQVADYGIVADLFKVVPEMTEILKKK | soluble
10 | MFRSSFCKNLENATSHLRLEPDWPSILLICDEINQKDVTPKNAFAAIKKKMNSPNPHSSCYSLLVLESIVKNCGAPVHEEVFTKENCEMFSSFLESTPHENVRQKMLELVQTWAYAFRSSDKYQAIKDTMTILKAKGHTFPELREADAMFTADTAPNWADGRVCHRCRVEFTFTNRKHHCRNCGQVFCGQCTAKQCPLPKYGIEKEVRVCDGCFAALQRG | soluble
